Data taken from patent US20250145695A1 (AC IMMUNE, published 2025).
Residue numbers refer to the chain shown, from its start. Where “and” joins values, the source holds several entries; their conditions need not be identical. Identical values can stand only once.

B1: hACI-7069-633B12-Ab1_H33L24 (antibody, V domains shown)
VH: EVQLVQSGAEVKKPGATVKISCKVSGFTFTEYSMHWVQQAPGKGLEWMGGINPNNGGTSYNQKFQGRVTITADTSTDTAYMELSSLRSEDTAVYYCARESWGQGTTVTVSS
VL: DIVMTQSPLSLPVTPGEPASISCKSSQSLLHSDGKTYLNWLLQKPGQSPQRLIYLVSKLDSRVPDRFSGSGSGTDFTLKISRVEAEDVGVYYCWQGTHFPHTFGQGTKLEIK
B2: hACI-7069-633B12-Ab1_H32L26 (antibody, V domains shown)
VH: B1 VH with N54Q, G56A
VL: B1 VL with G34A, W94F
B3: hACI-7069-633B12-Ab1_H28L24 (antibody, V domains shown)
VH: B1 VH with Q65K
VL: B1 VL
B4: hACI-7069-633B12-Ab1_H32L24 (antibody, V domains shown)
VH: B1 VH with N54Q, G56A
VL: B1 VL
B5: hACI-7069-633B12-Ab1_H28L22 (antibody, V domains shown)
VH: B1 VH with Q65K
VL: B1 VL with Q50K
B6: hACI-7069-633B12-Ab1_H27L23 (antibody, V domains shown)
VH: B1 VH with Q65K, A72V
VL: B1 VL with I2V
B7: hACI-7069-633B12-Ab1_H32L27 (antibody, V domains shown)
VH: B1 VH with N54Q, G56A
VL: B1 VL with W94F
B8: hACI-7069-633B12-Ab1_H33L26 (antibody, V domains shown)
VH: B1 VH
VL: B1 VL with G34A, W94F
B9: hACI-7069-633B12-Ab1_H33L27 (antibody, V domains shown)
VH: B1 VH
VL: B1 VL with W94F
B10: hACI-7069-633B12-Ab1_H28L23 (antibody, V domains shown)
VH: B1 VH with Q65K
VL: B1 VL with I2V
B11: ACI-7069-633B12-Ab1 (antibody, V domains shown)
VH: EVQLQQSGPELVKPGASVKISCKTSGFTFTEYSMHWVKQSHGKSLEWIGGINPNNGGTSYNQKFKGKATLTVDKSSSTAYMELRSLTSEDSAVYYCARESWGQGTTLTVSS
VL: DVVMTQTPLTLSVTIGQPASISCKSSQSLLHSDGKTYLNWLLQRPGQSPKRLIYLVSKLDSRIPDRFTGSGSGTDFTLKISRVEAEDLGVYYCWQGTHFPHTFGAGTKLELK
notes: also called murine parental antibody

How the values were obtained:
TP-51 peptide = target: T1, TP-51 peptide (human); assay: SPR Biacore 8K, mAb captured by anti-human antibody, TP-51 injected, single-cycle kinetics
T1 construct: Synthetic peptide from Pepscan; also called synthetic TDP-43 peptide (TP-51)
T1 peptide: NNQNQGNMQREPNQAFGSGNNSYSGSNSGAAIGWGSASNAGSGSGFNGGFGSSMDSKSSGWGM
Method: The instrument was primed with running buffer PBS-P+. Fc 1-2 of channels 1-8 (8K) were activated with a fresh solution of EDC/NHS (Amine Coupling Kit, 1:1 ratio of both reagents, GE Healthcare Life Sciences, BR-1006-33) at 10 μL/min for 420 sec and goat anti-human antibody (GE Healthcare Life Sciences, 29234600) was immobilized at 25 μg/mL in 10 mM sodium acetate pH 5 for 420 sec. Next, all Fc were quenched with 1 M ethanol amine (GE Healthcare Life Sciences, BR-1006-33), for 420 sec. Any non-covalently bound antibodies were removed by two regenerations with 10 mM Glycine-HCl pH 1.7 for 30 sec. Immobilization levels were evaluated following ethanolamine quenching (10000 RU for all channels).
Each cycle started with non-covalent capture of humanized variants which were diluted in running buffer to a final concentration of 2 μg/mL and injected for 60 sec with a flow rate of 10 μL/min. TDP-43 mAbs were captured on channels 1-8, leaving Fc 1 as a blank Fc. Capture levels were evaluated following a 120 sec stabilization period after each mAb injection and ranged from 300-500 RU.
TP-51 consists of amino acids 352-414 of TDP-43 (SEQ ID NO: 1). Injections of TP-51 peptide (Pepscan) were performed in single-cycle kinetics with increasing concentrations ranging from 1.2-100 nM prepared from serial 3-fold dilutions. Injections were performed with contact times of 300 sec/injection at a flow rate of 25 μL/min. A dissociation phase of 3600 sec followed the final injection. Sensor surface was regenerated by one injection of 10 mM Glycine-HCl pH 1.7 at a flow rate of 10 μL/min for 120 sec, followed by a stabilization period of 300 sec. Results obtained from single-cycle kinetics were double-referenced using the blank Fc 1 and buffer cycles and evaluated by Biacore 8K evaluation software with 1:1 kinetic fit model with RI and global Rmax. The following kinetic parameters were obtained: association rate constant (ka), dissociation rate constant (kd), affinity constant (KD) and saturation response (Rmax).

soluble TDP-43 = target: T2, soluble TDP-43 (human, UniProt Q13148 1-414); assay: SPR Biacore 8K, soluble TDP-43 immobilized on CM5, mAb injected, single-cycle kinetics
T2 construct: also called soluble full-length TDP-43; FL TDP-43
Method: The instrument was primed with running buffer PBS-P+ and flow cells (Fc) 1 and 2 of channels 1-8 were activated with a fresh solution of EDC/NHS (Amine Coupling Kit, 1:1 ratio of both reagents, GE Healthcare Life Sciences, BR-1006-33) at 10 μL/min for 420 sec. Soluble TDP-43 (Selvita) was diluted in sodium acetate pH 4.5 to a final concentration of 5 μg/mL and injected for 900 sec with a flow rate of 5 μL/min on Fc 2. All flow cells were quenched with 1 M ethanol amine (GE Healthcare Life Sciences, BR-1006-33), at 10 μL/min for 420 sec. Immobilization levels after ethanolamine quenching were 680 RU on all eight channels. Prior to analysis, two Startup cycles were run. Increasing mAbs concentrations were injected in single-cycle kinetics ranging from 1.2 to 100 nM, prepared from a 3-fold serial dilution in running buffer, with a contact time of 300 sec and a dissociation time of 3600 sec at a flow rate of 30 μL/min. Each cycle was followed by one regeneration using 10 mM Glycine-HCl pH 1.7 with a contact time of 30 sec at 30 μL/min, followed by a stabilization period of 300 sec. Results obtained from single-cycle kinetics were double-referenced using the blank Fc 1 and buffer cycles and evaluated using Biacore 8K evaluation software using the 1:1 kinetic fit model with RI and global Rmax. The following kinetic parameters were obtained: association rate constant (ka), dissociation rate constant (kd), affinity constant (KD) and saturation response (Rmax).

[1] = target: T3, human TDP-43 in CSF of a healthy donor (human, UniProt Q13148 1-414, limits assumed); assay: SIMOA-based target engagement assay, unbound TDP-43 in human CSF pre-incubated with increasing antibody
T3 construct: also called TDP-43 in human CSF

T2 sequence (Q13148 whole entry): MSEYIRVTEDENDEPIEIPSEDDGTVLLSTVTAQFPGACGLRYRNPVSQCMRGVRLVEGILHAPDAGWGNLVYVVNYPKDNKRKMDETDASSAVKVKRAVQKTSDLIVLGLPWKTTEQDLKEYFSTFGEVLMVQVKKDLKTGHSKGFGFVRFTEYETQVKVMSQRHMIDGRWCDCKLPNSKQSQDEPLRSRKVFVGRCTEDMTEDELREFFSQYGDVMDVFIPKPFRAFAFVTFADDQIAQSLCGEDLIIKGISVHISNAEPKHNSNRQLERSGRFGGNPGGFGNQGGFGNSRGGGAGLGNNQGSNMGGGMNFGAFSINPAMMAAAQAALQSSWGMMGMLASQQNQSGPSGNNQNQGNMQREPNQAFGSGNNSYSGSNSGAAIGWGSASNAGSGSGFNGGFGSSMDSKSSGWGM

Binder	Kd (TP-51 peptide)	koff (TP-51 peptide)	kon (TP-51 peptide)	Kd (soluble TDP-43)	koff (soluble TDP-43)	kon (soluble TDP-43)	EC50 [1]
B1	2.2 nM	0.00015 s⁻¹	70000 M⁻¹ s⁻¹	0.471 nM	1.3e-05 s⁻¹	30000 M⁻¹ s⁻¹	–
B2	1.4 nM	0.00016 s⁻¹	120000 M⁻¹ s⁻¹	0.563 nM	1.7e-05 s⁻¹	33000 M⁻¹ s⁻¹	–
B3	2 nM	0.00013 s⁻¹	66000 M⁻¹ s⁻¹	0.531 nM	1.7e-05 s⁻¹	37000 M⁻¹ s⁻¹	–
B4	2 nM	0.00012 s⁻¹	64000 M⁻¹ s⁻¹	0.716 nM	1.5e-05 s⁻¹	24000 M⁻¹ s⁻¹	–
B5	3.5 nM	0.0002 s⁻¹	58000 M⁻¹ s⁻¹	1.16 nM	3.4e-05 s⁻¹	29000 M⁻¹ s⁻¹	–
B6	3.3 nM	0.00014 s⁻¹	42000 M⁻¹ s⁻¹	0.925 nM	2.2e-05 s⁻¹	24000 M⁻¹ s⁻¹	–
B7	1 nM	0.00012 s⁻¹	120000 M⁻¹ s⁻¹	0.143 nM	5.2e-06 s⁻¹	36000 M⁻¹ s⁻¹	–
B8	1.6 nM	0.00029 s⁻¹	160000 M⁻¹ s⁻¹	0.22 nM	9e-06 s⁻¹	43000 M⁻¹ s⁻¹	–
B9	0.8 nM	0.00012 s⁻¹	150000 M⁻¹ s⁻¹	0.126 nM	6.5e-06 s⁻¹	52000 M⁻¹ s⁻¹	0.0356 µg/mL and 0.237 nM
B10	1.9 nM	0.00013 s⁻¹	65000 M⁻¹ s⁻¹	0.806 nM	2.6e-05 s⁻¹	32000 M⁻¹ s⁻¹	–
B11	1.5 nM	9.8e-05 s⁻¹	67000 M⁻¹ s⁻¹	0.328 nM	1.7e-05 s⁻¹	55000 M⁻¹ s⁻¹	–
